In US20040126856A1, “Factor ixa: factor Vllla interaction and methods therefor” (priority 2004, published 2004):

Tests used:
[1] = target: T1, A2 subunit of factor VIIIa (Homo sapiens, UniProt P00451); test: EC50 (functional Kd) of interaction of factor IXa proteins with A2 subunit, factor Xa generation (S-2222); format: biochemical; details: 5 nM factor IXa, 250 nM factor X, 25 μM PL, 5 mM CaCl2 (FIG. 1)
T1 construct: cleaved by thrombin at R372-S373, R740-S741, and R1689-S1690 to yield factor VIIIa
T1 sequence (P00451 392-759): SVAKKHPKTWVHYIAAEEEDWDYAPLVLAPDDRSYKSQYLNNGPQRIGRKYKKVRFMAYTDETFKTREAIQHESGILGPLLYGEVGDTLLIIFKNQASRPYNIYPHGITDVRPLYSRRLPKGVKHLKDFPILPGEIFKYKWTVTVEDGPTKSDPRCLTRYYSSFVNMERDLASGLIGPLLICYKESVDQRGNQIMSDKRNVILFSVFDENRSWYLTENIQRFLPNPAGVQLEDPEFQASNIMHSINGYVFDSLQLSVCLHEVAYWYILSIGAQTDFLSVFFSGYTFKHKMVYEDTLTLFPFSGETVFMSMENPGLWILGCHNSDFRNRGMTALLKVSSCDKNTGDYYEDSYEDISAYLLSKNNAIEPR
Experimental: Determination of EC50 of Interaction of Factor IXa Proteins with A2 Subunit.
The EC50 (functional Kd) of binding of each factor IXa protein with A2 subunit was measured essentially as described previously for its interaction with intact factor VIIIa (Mather and Bajaj, 1999; Mather et al., 1997). For these experiments, concentrations of factor IXa and factor X were kept constant, and the rates of formation of factor Xa were determined at increasing concentrations of A2 subunit. Reaction mixtures contained 5 nM IXa protein, 250 nM factor X, 25 μM PL and various concentrations of A2 subunit in TBS/BSA, pH 7.5 containing 5 mM CaCl2. Reactions were carried out at 37° C. for 5-20 minutes and stopped by adding 1 μL of 500 mM EDTA. The amount of factor Xa generated was determined by S-2222 hydrolysis as described previously (Mather and Bajaj, 1999; Mather et al., 1997). The EC50 was obtained by fitting the data to a single site ligand binding equation (Eq. 1) by non-linear regression analysis using the program GraFit from Erithacus Software. [formula]
Where V is the rate of formation of factor Xa at a given concentration of the A2 subunit, denoted by L, and Vmax is the rate of factor Xa formation by the factor IXa:A2 subunit complex. EC50 is the functional Kd defined as the concentration of free A2 subunit yielding 50% of the Vmax. The background rate of factor Xa generation was obtained by carrying out the reaction in the absence of the A2 subunit.

[2] = target: T1, A2 subunit of factor VIIIa; test: Apparent KdA2 of dEGR-IXa proteins: inhibition of IXaWT:A2 subunit interaction in the tenase system; format: biochemical; details: for Kd: values from FIG. 3, read-out: App KdA2; for ΔG°A2: ΔG° = RTlnKd, 298 Kelvin
Experimental: Determination of KdA2 of Binding of dEGR-IXa Proteins to A2 Subunit.
The apparent Kd (termed KdA2) for binding of each dEGR-IXa protein to the A2 subunit was determined by its ability to inhibit factor IXaWT:A2 subunit interaction in the tenase complex as described earlier for intact factor VIIIa (Mather and Bajaj, 1999; Mather et al., 1997). The reactions were carried out as described for the EC50 experiments above except dEGR-IXa and IXaWT were mixed prior to addition of the A2 subunit; this ensured steady state conditions. Mixtures contained 100 nM IXaWT, 30 nM A2 subunit, 250 nM factor X, 25 μM PL, and various concentrations of dEGR-IXa proteins in TBS/BSA, pH 7.5 containing 5 mM CaCl2. The IC50 (concentration of inhibitor required for 50% inhibition) was determined by fitting the data to the IC50 four-parameter logistic equation of Halfman (1981) given below (Eq. 2). [formula]
where y is the rate of Xa formation in the presence of a given concentration of dEGR-IXa protein represented by x, a is the maximum rate of factor Xa formation in the absence of dEGR-IXa, and s is the slope factor. Each point was weighted equally, and the data were fitted to Equation 2 using the nonlinear regression analysis program GraFit from Erithacus Software. […] To obtain KdA2 values for the interaction of dEGR-IXa proteins with A2, we used the following equation (Eq. 3) as described by Cheng and Prusoff (1973) and further elaborated by Craig (1993). [formula]
where A is the concentration of IXaWT, and EC50 is the concentration of factor IXaWT that gives a 50% maximum response in the absence of the competitor at a specified concentration of factor X used in the experiment.

[3] = target: T1, A2 subunit of factor VIIIa; test: Fluorescence quenching of the dansyl moiety in dEGR-IXa by the A2 subunit; format: binding; details: for Change in dansyl fluorescence emission intensity on titration with A2 subunit: 100 μM PL (FIG. 4)
Experimental: Fluorescence Quenching of the Dansyl Moiety in dEGR-IXa by the A2 Subunit.
The effect of the A2 subunit on the emission intensity of the dansyl moiety in each dEGR-IXa protein was determined using the SLM AB2 spectrofluorometer. Each reaction mixture contained 220 nM dEGR-IXa in 20 mM Hepes, pH 7.2, 100 mM NaCl, 5 mM CaCl2, 0.01% Tween, 200 μg/ml BSA and 100 μM PL vesicles. The excitation wavelength was 340 nm (slit width, 8 nm) and the emission wavelength was 540 nm (slit width; 8 nm). First, blank values (in triplicate) were obtained for the buffer containing PL. dEGR-IXa was then added and the emission intensity in the absence of the A2 subunit was recorded. Each reaction mixture was subsequently titrated with the A2 subunit and the emission readings (in triplicate) were obtained at each time point. The fluorescence emission intensity at each point was corrected for increases in the reaction volume prior to analysis of the data. […] Data are presented as F/F0 where F0 is the emission intensity in the absence of A2 subunit and F is the intensity at a given A2 subunit concentration.

Row | Ability of the A2 subunit to enhance/potentiate the factor X-activating activity of the IXa protein [1] | EC50 (functional Kd), apparent Kd of interaction with the A2 subunit, single site-binding model [1] | Change in ΔG°A2 between the mutant and WT [2] [kcal/mol] | Fold-change in apparent KdA2 (mutant/WT) [2] | Kd [2] [nM] | ΔG°A2 [2] [kcal/mol] | Change in dansyl fluorescence emission intensity on titration with A2 subunit ([3]; 220 nM dEGR-IXa protein) | EC50 ([1]; read-out: EC50 (functional Kd), apparent Kd of interaction with the A2 subunit, single site-binding model) [nM] | Plateau value for F/F0 ([3]; bimolecular association model fit, 220 nM dEGR-IXa protein, 100 μM PL) | Kd ([3]; bimolecular association model fit, read-out: Apparent KdA2 from fluorescence quenching) [nM] | Substance
1 | severely impaired | could not be calculated | 1.72 | ~15 | 1850 ± 82 | 7.82 | little if any change | – | – | – | IXaR333Q: activated factor IX point mutant in which Arg333 is replaced by Gln
2 | – | – | – | – | 100 ± 11 | 9.54 | dose-dependent decrease | 257 ± 31 | 0.59±0.05 | ~100 | IXaWT: activated recombinant wild-type factor IX (IXWT)
